Measured values taken from patent publication US20250222125A1, “Anti-FGFR2b Antibodies, Conjugates and Methods of Use” (BeiGene, Ltd., priority 2024, published 2025).
Read-outs that look alike come from different tables or passages of the source.

How the values were obtained:
[1] = molecular target: mouse FGFR2b on cells (mouse) (UniProt P21803); test: flow cytometry, murine FGFR2b OE cells
[2] = molecular target: human FGFR2c protein (recombinant, coated on ELISA plates) (human) (UniProt P21802); test: ELISA, plate-coated human FGFR2c
[3] = molecular target: soluble human FGFR2b protein (his tag, in-house generated) (human) (UniProt P21802); test: SPR (Biacore 8K), antibody captured by anti-human Fc, soluble human FGFR2b-his as analyte
[4] = molecular target: human FGFR2b on cells (human) (UniProt P21802); test: flow cytometry, human FGFR2b OE cells
[5] = molecular target: human FGFR2b protein (recombinant, coated on ELISA plates) (human) (UniProt P21802); test: ELISA, plate-coated human FGFR2b
[6] = molecular target: human FGFR2c on cells (human) (UniProt P21802); test: flow cytometry, human FGFR2c OE cells
[7] = molecular target: mouse FGFR2b on cells (mouse) (UniProt P21803); test: flow cytometry, Expi293 cells overexpressing mouse FGFR2b
[8] = molecular target: human FGFR2b on cells (human) (UniProt P21802); test: flow cytometry, Expi293 cells overexpressing human FGFR2b
[9] = molecular target: human FGFR2b protein (recombinant, coated on ELISA plates) (human) (UniProt P21802); test: ELISA, plate-coated human FGFR2b; remark: listed apart in the source
[10] = molecular target: soluble human FGFR2b protein (his tag, in-house generated) (human) (UniProt P21802); test: SPR, antibody captured by anti-human Fc, human FGFR2b
[11] = molecular target: human FGFR2c on cells (human) (UniProt P21802); test: flow cytometry, Expi293 cells overexpressing human FGFR2c

human FGFR2b protein (recombinant, coated on ELISA plates) (human), sequence (P21802 other isoform, or with tags, fused parts or gaps limits assumed): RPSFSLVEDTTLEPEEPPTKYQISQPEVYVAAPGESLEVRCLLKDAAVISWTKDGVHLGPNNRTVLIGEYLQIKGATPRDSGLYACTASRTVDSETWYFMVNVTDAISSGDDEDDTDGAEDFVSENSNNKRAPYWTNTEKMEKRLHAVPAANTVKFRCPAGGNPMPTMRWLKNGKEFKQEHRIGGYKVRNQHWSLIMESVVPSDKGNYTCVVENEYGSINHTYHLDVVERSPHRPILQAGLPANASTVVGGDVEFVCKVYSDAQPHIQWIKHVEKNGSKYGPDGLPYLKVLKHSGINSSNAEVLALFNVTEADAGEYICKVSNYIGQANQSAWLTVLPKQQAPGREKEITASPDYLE
human FGFR2b on cells (human), sequence (P21802 other isoform, or with tags, fused parts or gaps limits assumed): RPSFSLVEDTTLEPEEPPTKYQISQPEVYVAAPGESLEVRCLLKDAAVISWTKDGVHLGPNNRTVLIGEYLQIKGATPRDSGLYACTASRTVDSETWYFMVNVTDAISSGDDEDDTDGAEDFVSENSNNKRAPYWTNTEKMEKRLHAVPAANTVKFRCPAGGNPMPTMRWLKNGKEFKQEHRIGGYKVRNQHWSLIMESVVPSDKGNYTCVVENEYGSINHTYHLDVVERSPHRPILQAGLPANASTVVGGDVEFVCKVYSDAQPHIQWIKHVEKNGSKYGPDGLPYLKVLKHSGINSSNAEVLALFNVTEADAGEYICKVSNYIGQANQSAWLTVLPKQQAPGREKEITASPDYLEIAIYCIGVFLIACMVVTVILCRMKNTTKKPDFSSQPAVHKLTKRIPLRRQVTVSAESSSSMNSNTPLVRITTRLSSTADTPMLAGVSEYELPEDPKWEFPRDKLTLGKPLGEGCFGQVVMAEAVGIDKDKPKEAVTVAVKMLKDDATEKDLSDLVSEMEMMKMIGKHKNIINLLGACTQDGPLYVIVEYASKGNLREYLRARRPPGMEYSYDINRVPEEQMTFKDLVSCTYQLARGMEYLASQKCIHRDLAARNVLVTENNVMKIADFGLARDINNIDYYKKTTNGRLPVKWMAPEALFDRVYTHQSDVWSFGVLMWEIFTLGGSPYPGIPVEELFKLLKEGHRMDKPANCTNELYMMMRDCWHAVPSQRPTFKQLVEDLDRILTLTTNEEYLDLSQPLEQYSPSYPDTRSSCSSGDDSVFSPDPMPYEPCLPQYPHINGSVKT
human FGFR2c on cells (human), sequence (P21802 22-821): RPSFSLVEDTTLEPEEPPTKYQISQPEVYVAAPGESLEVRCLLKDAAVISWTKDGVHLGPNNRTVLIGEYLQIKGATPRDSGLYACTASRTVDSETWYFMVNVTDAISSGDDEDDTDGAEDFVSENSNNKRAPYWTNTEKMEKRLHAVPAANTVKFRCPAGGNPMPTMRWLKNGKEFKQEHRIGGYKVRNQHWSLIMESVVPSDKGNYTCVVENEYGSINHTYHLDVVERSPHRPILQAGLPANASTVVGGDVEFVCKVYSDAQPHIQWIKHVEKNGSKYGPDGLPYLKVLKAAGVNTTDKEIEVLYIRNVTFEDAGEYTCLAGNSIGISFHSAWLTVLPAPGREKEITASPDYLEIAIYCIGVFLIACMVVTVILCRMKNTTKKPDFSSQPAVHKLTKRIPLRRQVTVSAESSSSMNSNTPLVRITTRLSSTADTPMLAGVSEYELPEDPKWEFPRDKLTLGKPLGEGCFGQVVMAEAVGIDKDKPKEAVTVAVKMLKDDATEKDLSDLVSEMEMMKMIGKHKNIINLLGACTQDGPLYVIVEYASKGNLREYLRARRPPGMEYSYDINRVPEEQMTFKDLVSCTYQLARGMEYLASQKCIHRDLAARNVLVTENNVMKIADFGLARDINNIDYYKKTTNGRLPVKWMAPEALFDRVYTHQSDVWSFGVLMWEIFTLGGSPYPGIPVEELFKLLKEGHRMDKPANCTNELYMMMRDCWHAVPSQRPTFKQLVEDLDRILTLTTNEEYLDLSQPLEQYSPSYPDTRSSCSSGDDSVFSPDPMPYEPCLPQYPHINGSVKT

Row | Binder | EC50 [1] [nM] | Emax (OD450) [2] [OD450] | Kd [3] [nM] | koff [3] [s⁻¹] | kon [3] [M⁻¹ s⁻¹] | EC50 [4] [nM] | EC50 [5] [nM] | Emax (OD450) [5] [OD450] | Emax (MFI) [6] [MFI] | EC50 [7] [nM] | Emax (MFI) [7] [MFI] | Emax (A450) [2] [A450] | EC50 [8] [nM] | Emax (MFI) [8] [MFI] | EC50 [9] [nM] | Emax (A450) [9] [A450] | Kd [10] [nM] | koff [10] [s⁻¹] | kon [10] [M⁻¹ s⁻¹] | Emax (MFI) [11] [MFI]
1 | BGA1421 (antibody, human IgG1, kappa, V domains shown) VH: QVQLVQSGAEVKKPGSSVKVSCKASGYIFTTYNVHWVRQAPGQGLEWIGSIYPDNGDTSYNQNFKGRATITADKSTSTAYMELSSLRSEDTAVYYCARGDFAYWGQGTLVTVSS VL: DIQMTQSPSSLSASVGDRVTITCKASQGVSNDVAWYQQKPGKAPKLLIYSASYRYTGVPSRFSGSGSGTDFTFTISSLQPEDIATYYCQQHSTTPYTFGQGTKLEIKR | 0.81 | 0.09 | 22.2 | 0.00232 | 104000 | 0.48 | 0.61 | 2.62 | 40 |  |  |  |  |  |  |  |  |  |  | 
2 | BGAh9239 (antibody, human IgG1, kappa, V domains shown) VH: QVQLVQSGAEVKKPGSSVKVSCKASGYTFSIYWLNWVRQAPGQGLEWMGQIYPENADTNYSGKFKGRVTITADKSTSTAYMELSSLRSEDTAVYFCARGGFDYWGQGTLVTVSS VL: DIQMTQSPSSLSASVGDRVTITCRASENIYSNLAWYQQKPGKAPKLLIYTATNLAEGVPSRFSGSGSGTDFTLTISSLQPEDFATYYCQHFYGILYTFGQGTRLEIKR | 1.59 | 0.07 | 24.7 | 0.00189 | 76600 | 1.84 | 0.26 | 3.37 | 36 | 2.67 | 5.1e+06 | 0.13 | 2.4 | 3.08e+06 | 0.031 | 2.94 | 37.3 | 0.003 | 80500 | 23800
3 | BGAm1371 (antibody, V domains shown) VH: QVQLKQSGAELVKPGASVKLSCTASGFNIKDTYIHWVKQRPEQGLEWIGRIDPANGNTMFASEFQGKATITAYTSSNTAYMQLSSLTSGDTAVYYCARSKIHYDYDEGFAYWGQGTLVTVSS VL: NIVLTQSPPSLAVSLGQRATVSCRASESVDDYGYSFLHWYQQKPGQPPKLLIYRASNLESGIPARFSGSGSRTDFTLTINPVETDDVATYYCQQSNQNPRTFGGGTKLEIK | 1.78 | 0.07 |  |  |  | 1.25 | 0.19 | 3.35 | 33 | 3.5 | 4.98e+06 | 0.204 | 1.5 | 3.05e+06 | 0.0309 | 3.01 | 16.3 | 0.00119 | 72900 | 23100

More lines, now with the values ahead:

Row | EC50 [1] [nM] | Emax (OD450) [2] [OD450] | Kd [3] [nM] | koff [3] [s⁻¹] | kon [3] [M⁻¹ s⁻¹] | EC50 [4] [nM] | EC50 [5] [nM] | Emax (OD450) [5] [OD450] | Emax (MFI) [6] [MFI] | EC50 [7] [nM] | Emax (MFI) [7] [MFI] | Emax (A450) [2] [A450] | EC50 [8] [nM] | Emax (MFI) [8] [MFI] | EC50 [9] [nM] | Emax (A450) [9] [A450] | Kd [10] [nM] | koff [10] [s⁻¹] | kon [10] [M⁻¹ s⁻¹] | Emax (MFI) [11] [MFI] | Binder
4 |  |  | 13.9 | 0.00112 | 80600 |  |  |  |  | 4.25 | 5.15e+06 | 0.086 | 3.29 | 2.98e+06 | 0.0518 | 2.99 | 21.8 | 0.00178 | 81600 | 21700 | BGAh9179 (antibody, human IgG1, kappa, V domains shown) VH: QVQLVQSGAEVKKPGASVKVSCKASGYTITDTYIHWVRQAPGQGLEWMGRIDPAEGNTMFASEFQGRVTMTADTSTSTVYMELSSLRSEDTAVYYCARSKIHYDYDEGFAYWGQGTLVTVSS VL: DIVLTQSPDSLAVSLGERATINCRASESVDDYGYSFLHWYQQKPGQPPKLLIYRASNLESGVPDRFSGSGSGTDFTLTISSLQAEDVAVYYCQQSNQNPRTFGGGTKVEIKR
5 |  |  |  |  |  |  |  |  |  | 3.37 | 5.19e+06 | 0.116 | 2.12 | 3.09e+06 | 0.0442 | 2.95 | 24.2 | 0.00185 | 76300 | 22600 | BGAm1823 (antibody, V domains shown) VH: EVQLQQSGAELVKPGASVKISCKASGYAFSIYWMNWVKQRPGKGLEWIGQIYPENGDTNYNGKFKGKATLTADKSSSTAYMHLSSLTSEDSAVYFCARGGFDYWGQGTTLTVSS VL: NIVMTQSPASLSASVGETVTITCRASENIYSNLAWYQQKQGKSPQLLVYTATNLADGVPSRFSGSGSGTQFSLKINSLQPEDFGSYYCQHFYGILYTFGSGTRLEIK
